Results: FireProtDB (doi:10.1371/journal.pone.0064824)
Where “and” joins values, the source holds several entries; their conditions need not be identical. Equal entries are not always repeated.

Conditions: Homo sapiens, pH 7.5, Tris-HCl 20mM; for unfolding free energy / ddG of mutation (higher = less stable) / denaturant m value: 10 °C, Urea; for Tm: Thermal
[1] = CD, transition: 2, structure 1XWS

Serine/threonine-protein kinase pim-1 wild type, P11309, sequence (P11309 whole entry): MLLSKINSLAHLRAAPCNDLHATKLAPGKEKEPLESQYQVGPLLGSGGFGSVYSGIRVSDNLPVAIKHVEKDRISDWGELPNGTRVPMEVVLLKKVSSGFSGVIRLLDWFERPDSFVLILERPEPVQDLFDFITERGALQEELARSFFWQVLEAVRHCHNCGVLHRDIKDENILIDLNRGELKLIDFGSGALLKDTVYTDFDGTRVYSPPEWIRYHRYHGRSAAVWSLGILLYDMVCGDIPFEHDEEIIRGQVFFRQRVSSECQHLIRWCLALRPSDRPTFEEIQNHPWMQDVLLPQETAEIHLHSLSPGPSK
Serine/threonine-protein kinase pim-1 E142D, P11309, sequence (P11309 whole entry E142D): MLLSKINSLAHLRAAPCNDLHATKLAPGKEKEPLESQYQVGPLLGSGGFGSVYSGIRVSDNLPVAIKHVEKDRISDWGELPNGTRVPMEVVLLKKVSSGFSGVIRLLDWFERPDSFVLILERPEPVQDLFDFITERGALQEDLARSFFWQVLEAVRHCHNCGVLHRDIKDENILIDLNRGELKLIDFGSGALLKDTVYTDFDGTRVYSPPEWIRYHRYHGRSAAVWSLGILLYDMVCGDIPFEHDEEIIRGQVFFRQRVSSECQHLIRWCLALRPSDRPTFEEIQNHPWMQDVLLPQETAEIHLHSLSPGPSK
Serine/threonine-protein kinase pim-1 Y53H, P11309, sequence (P11309 whole entry Y53H): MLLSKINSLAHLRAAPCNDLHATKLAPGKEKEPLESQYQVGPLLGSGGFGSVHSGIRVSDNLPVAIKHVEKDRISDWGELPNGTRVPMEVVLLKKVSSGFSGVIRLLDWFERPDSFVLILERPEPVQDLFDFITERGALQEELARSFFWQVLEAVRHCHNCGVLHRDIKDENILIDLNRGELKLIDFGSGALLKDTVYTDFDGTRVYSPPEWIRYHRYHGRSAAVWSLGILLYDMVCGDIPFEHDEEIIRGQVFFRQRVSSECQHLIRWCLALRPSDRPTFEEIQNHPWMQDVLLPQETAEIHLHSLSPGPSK
Serine/threonine-protein kinase pim-1 E135K, P11309, sequence (P11309 whole entry E135K): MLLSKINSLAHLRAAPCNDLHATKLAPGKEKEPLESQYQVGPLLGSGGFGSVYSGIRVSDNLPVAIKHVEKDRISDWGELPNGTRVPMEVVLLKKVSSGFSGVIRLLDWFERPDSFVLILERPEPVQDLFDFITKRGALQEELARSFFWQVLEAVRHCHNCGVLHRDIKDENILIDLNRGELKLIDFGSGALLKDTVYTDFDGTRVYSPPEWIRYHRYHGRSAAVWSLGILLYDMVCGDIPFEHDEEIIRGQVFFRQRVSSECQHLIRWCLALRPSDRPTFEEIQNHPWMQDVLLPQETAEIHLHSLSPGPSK
Serine/threonine-protein kinase pim-1 E124Q, P11309, sequence (P11309 whole entry E124Q): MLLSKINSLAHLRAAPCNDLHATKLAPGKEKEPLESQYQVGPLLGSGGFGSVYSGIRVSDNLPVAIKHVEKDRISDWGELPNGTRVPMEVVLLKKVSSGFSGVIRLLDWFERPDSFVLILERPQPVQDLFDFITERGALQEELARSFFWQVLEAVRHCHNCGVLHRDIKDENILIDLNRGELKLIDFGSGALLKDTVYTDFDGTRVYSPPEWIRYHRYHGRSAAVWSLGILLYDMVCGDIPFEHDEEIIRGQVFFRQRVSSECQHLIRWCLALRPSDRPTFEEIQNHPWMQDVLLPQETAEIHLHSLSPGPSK

Substance | unfolding free energy (Fluorescence, transition: 4, structure 1XWS) | Tm [1] [°C] | ddG of mutation (higher = less stable) [1] [kcal/mol] | denaturant m value [1] [kcal/mol/M] | unfolding free energy [1] [kcal/mol] | denaturant m value (CD, transition: 2) [kcal/mol/M] | unfolding free energy (CD, transition: 2) [kcal/mol] | Tm (CD, transition: 3) [°C]
Serine/threonine-protein kinase pim-1 E124Q, P11309 | 3.46 kcal/mol and 3.08 kcal/mol and 5.22 kcal/mol | 44 |  |  |  |  |  | 
Serine/threonine-protein kinase pim-1 E135K, P11309 |  | 40.5 | 4.59 | 0.43 | 1.82 |  |  | 
Serine/threonine-protein kinase pim-1 E142D, P11309 |  | 40 | 3.22 | 0.69 | 3.19 |  |  | 
Serine/threonine-protein kinase pim-1 Y53H, P11309 |  |  | 3.3 | 0.62 | 3.11 |  |  | 
Serine/threonine-protein kinase pim-1 wild type, P11309 |  |  |  |  |  | 1.2 | 6.41 | 40.5
